Experimental data from publication doi:10.1101/2023.06.19.545627v1, “Pharmacokinetic profile of the synthetic mu-opioid receptor agonist [Lys7]Dermorphin-IRDye®800CW and its feasibility as a biomarker for opioid use disorder” (bioRxiv, 2023).

Legend:
[1] = Plasma pharmacokinetics by direct carotid artery fluorescence imaging after intravenous injection; conditions: for Plasma half-life (time in which the concentration of dye is 50% of initial) / Distribution (α) half-life / Elimination (β) half-life: IV; for Distribution (α) half-life / Elimination (β) half-life: biexponential; for Distribution (α) half-life / Elimination (β) half-life / Distribution rate, b / Elimination rate, d: value (95% CI); for Distribution rate, b / Elimination rate, d: biexponential fit
[2] = molecular target: MOR (Mus musculus, UniProt P42866); experiment: Whole body biodistribution by cryo-macrotome fluorescence imaging, wildtype vs MOR knockout; conditions: 1 hour after IV injection
[3] = tested on: CHO-K1 cells expressing MOR; experiment: Wide field fluorescence microscopy of DRM-800 binding and internalization; assay type: cell-based, Chinese hamster
From the text: Cells were visualized using a Zeiss LSM 800 inverted microscope with a Generation III 750 nm laser light source (Lumencor, Inc., Beaverton, OR) and a Zeiss Plan-Apochromat 20×/0.8 M27 objective lens. The filters used for imaging DRM-800 were 740 nm for excitation, 770 nm dichroic and 780 nm longpass for emission (Filter Set 49037, Chroma Technology Corp., Bellows Falls, VT). Acquisition of micrographs was accomplished using a digital CMOS Camera (C114400-22CU, Hamamatsu Photonics K.K.) with a 2×2 pixel binning. Images were processed in ImageJ FIJI, windowed and leveled identically across samples, and then adjusted step-wise until cells are visible, with each image being shown for transparency.
Wide field fluorescence microscopy (Fig. 3) was used to study the binding and internalization of DRM-800 to stably expressed MORs in the membrane of transfected CHO-K1 cells.

[4] = MOR-knockout mice, n = 4, 1 nmol IV tail vein coinjection with IRDye700DX
[5] = wildtype mice, n = 4, 1 nmol IV tail vein coinjection with IRDye700DX, imaged 1 hour
[6] = rate constants did not differ between groups (wildtype and MOR-knockout mice), 1 nmol IV coinjection with DRM-800

Chain of MOR (P42866 whole entry, looked up): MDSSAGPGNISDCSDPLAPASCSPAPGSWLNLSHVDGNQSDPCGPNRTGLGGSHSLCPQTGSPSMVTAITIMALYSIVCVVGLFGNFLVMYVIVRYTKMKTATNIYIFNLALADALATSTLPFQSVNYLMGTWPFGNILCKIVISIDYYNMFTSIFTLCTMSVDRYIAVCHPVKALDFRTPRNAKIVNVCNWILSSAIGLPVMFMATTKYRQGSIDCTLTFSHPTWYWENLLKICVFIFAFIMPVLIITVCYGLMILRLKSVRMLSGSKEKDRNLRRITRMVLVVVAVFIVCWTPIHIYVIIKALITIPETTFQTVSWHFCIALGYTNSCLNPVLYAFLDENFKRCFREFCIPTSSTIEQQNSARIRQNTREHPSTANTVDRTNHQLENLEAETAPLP

C[C@@H](NC(=O)[C@@H](N)Cc1ccc(O)cc1)C(=O)N[C@@H](Cc1ccccc1)C(=O)NCC(=O)N[C@@H](Cc1ccc(O)cc1)C(=O)N1CCC[C@H]1C(=O)N[C@@H](CCCCN)C(=O)N[C@@H](CSC1CC(=O)N(CCNC(=O)CCCCC[N+]2=C(/C=C/C3=C(Oc4ccc(S(=O)(=O)O)cc4)C(=C/C=C4/N(CCCCS(=O)(=O)O)c5ccc(S(=O)(=O)O)cc5C4(C)C)/CCC3)C(C)(C)c3cc(S(=O)(=O)[O-])ccc32)C1=O)C(N)=O (stereo partly drawn) [DRM-800, IRDye®800CW-labelled YdAFGYPKC-NH2]
Plasma half-life (time in which the concentration of dye is 50% of initial) ([1]; MOR knockout mice): 12.6 min
Distribution (α) half-life ([1]; MOR knockout mice): 6.2 (4.9 - 8.6) min
Elimination (β) half-life ([1]; MOR knockout mice): 45 (33–68) min
Distribution rate, b [1, 4]: 0.11 (0.08-0.14) min^−1
Elimination rate, d [1, 4]: 0.0155 (0.0102 - 0.0202) min^−1
Plasma half-life following intravenous injection ([1]; mice (abstract summary over wildtype and knockout)): 8 to 12 min
Plasma half-life (time in which the concentration of dye is 50% of initial) ([1]; wildtype mice): 7.95 min
Distribution (α) half-life ([1]; wildtype mice): 3.3 (3.1-3.5) min
Elimination (β) half-life ([1]; wildtype mice): 70.8 (67.2 - 74.8) min
Distribution rate, b [1, 5]: 0.211 (0.197 - 0.224) min^-1
Elimination rate, d [1, 5]: 0.0097 (0.0093 - 0.0103) min^-1
Fluorescence in small and large intestine, wildtype compared with knockout ([2]; cryo-macrotome ROI analysis): elevated levels of DRM-800 compared with knockout mice
Ratio of average fluorescence wildtype vs knockout, dorsal root ganglion ([2]; cryo-macrotome ROI analysis): 1.8 ± 0.05
Ratio of average fluorescence wildtype vs knockout, left spiral ganglion ([2]; cryo-macrotome ROI analysis): 2.2 ± 0.2
Ratio of average fluorescence wildtype vs knockout, right spiral ganglion ([2]; cryo-macrotome ROI analysis): 2.9 ± 0.3
Ratio of average fluorescence wildtype vs knockout, trigeminal ganglion ([2]; cryo-macrotome ROI analysis): 3.1 ± 0.2
Fluorescence signal in brain ([2]; either group of mice (wildtype, knockout)): did not observe any appreciable signal
Binding and internalization seen by fluorescence microscopy ([3]; 2 nM and 25 nM, 35°C, 30 min of incubation, no sucrose): plasma membrane fluorescence as well as fluorescent puncta of high intensity in the perinuclear region of the cytoplasm were observable
Binding and internalization seen by fluorescence microscopy with internalization inhibited ([3]; 4C with addition of sucrose (0.35 M)): fluorescence was distinctly observed at the plasma membrane and intracellular puncta was greatly reduced

IRDye®700DX [IRD700, reference compound]
Distribution rate, b [1, 6]: 0.42 (0.36 - 0.47) min^−1
Elimination rate, d [1, 6]: 0.054 (0.051 - 0.057) min^−1
